# Laboratory results: paper PMC9891525 (PLOS Pathogens, 2023)
# Numbering of substitutions follows the chain as printed.
# B1: REGN10987 scFv combinatorial variant d1 displayed on HEK 293T cells (scFv, V domains shown)
# VH: QVQLVESGGGVVQPGRSLRLSCAASGFTFSNYAMYWVRQAPGKGLEWVAVISYTGSNKYYADSVKGRFTISRDNSKNTLYLQMNSLRTEDTAVYYCASGSDYGDYLLVYWGQGTLVTVSS
# VL: QSALTQPASVSGSPGQSITISCTGTSSDVGGYNYVSWYQQHPGKAPKLMIYDVSKRPSGVSNRFSGSKSGNTASLTISGLQSEDEADYYCNSLTSIYTWVFGGGTKLTVL
# B2: REGN10987 scFv combinatorial variant d8 displayed on HEK 293T cells (scFv, V domains shown)
# VH: B1 VH with T54L
# VL: B1 VL
# B3: REGN10987 scFv combinatorial variant d6 displayed on HEK 293T cells (scFv, V domains shown)
# VH: B1 VH with T54I
# VL: B1 VL
# B4: REGN10987 scFv combinatorial variant d3 displayed on HEK 293T cells (scFv, V domains shown)
# VH: B1 VH with N57H
# VL: B1 VL
# B5: REGN10987 scFv combinatorial variant d2 displayed on HEK 293T cells (scFv, V domains shown)
# VH: B1 VH with T54D, N57H
# VL: B1 VL
# B6: REGN10987 scFv combinatorial variant A1 displayed on HEK 293T cells (scFv, V domains shown)
# VH: B1 VH with T54D, N57F, L106N
# VL: B1 VL with Y97S
# B7: REGN10987 scFv combinatorial variant A2 displayed on HEK 293T cells (scFv, V domains shown)
# VH: B1 VH with T54D, N57T, L106N
# VL: B1 VL with Y97S
# Target: biotinylated recombinant SARS-CoV-2 wild type spike RBD (SARS-CoV-2, wild type, UniProt P0DTC2, biotin (biotinylated; detected with streptavidin-FITC))
# Assay: flow cytometry on cells
# Conditions: one partner purified
row,Binder,binding result
1,B1,binds
2,B2,binds
3,B3,binds
4,B4,binds
5,B5,binds
6,B6,binds
7,B7,binds
